Measured values as given in publication PMC4379030.

Tests used:
[1] = target: CaM-free full-length murine inducible nitric-oxide synthase, expressed and purified in the absence of CaM (murine) (UniProt P29477); test: ITC; single injection mode; 20 μM iNOSfl (-CaM) (dissolved in 200 μl) against 8 μM CaM (dissolved in 2 ml); 40 mM EPPS, 10% glycerol, 150 mM NaCl, 2 mM Ca2+; single-site binding model
[2] = target: CaM-free full-length murine inducible nitric-oxide synthase, expressed and purified in the absence of CaM (murine) (UniProt P29477)

UniProt P29477, sequence (P29477 whole entry): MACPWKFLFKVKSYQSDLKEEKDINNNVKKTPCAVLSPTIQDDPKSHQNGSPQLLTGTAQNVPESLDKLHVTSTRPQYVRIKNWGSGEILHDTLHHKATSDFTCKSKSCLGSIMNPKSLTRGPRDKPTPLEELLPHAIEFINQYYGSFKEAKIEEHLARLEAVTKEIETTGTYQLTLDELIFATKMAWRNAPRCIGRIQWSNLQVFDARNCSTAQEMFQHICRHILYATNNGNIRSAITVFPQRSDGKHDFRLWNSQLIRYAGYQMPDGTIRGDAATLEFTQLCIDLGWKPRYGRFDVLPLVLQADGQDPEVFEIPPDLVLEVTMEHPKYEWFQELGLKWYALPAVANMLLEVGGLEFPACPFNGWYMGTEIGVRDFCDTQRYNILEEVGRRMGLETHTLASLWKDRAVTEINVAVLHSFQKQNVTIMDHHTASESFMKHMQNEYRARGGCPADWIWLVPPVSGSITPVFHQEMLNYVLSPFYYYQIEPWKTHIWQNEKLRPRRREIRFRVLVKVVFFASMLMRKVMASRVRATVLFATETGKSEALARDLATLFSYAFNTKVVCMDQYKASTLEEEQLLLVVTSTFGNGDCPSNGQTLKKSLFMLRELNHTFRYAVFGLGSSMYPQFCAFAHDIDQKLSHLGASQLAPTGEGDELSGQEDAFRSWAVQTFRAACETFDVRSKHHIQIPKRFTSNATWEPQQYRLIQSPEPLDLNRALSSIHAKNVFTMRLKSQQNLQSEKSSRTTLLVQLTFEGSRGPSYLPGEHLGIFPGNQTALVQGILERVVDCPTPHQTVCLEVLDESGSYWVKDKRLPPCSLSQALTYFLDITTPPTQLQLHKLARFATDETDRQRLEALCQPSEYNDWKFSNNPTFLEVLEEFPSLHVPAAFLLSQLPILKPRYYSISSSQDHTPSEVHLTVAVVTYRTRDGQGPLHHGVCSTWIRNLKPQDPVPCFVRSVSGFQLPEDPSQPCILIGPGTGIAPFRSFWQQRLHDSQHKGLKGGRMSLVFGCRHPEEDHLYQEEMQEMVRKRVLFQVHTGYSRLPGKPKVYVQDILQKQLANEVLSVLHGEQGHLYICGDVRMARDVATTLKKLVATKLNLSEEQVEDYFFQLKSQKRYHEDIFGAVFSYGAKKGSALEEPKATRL

**Q.** What does the source list for “calmodulin (added in vitro) (from UniProt P0DP23 1-149) (natural protein)”?
**A.** dH [1]: 489000 cal/mol; steady-state NO synthesis activity (oxyhemoglobin assay, 1 μM CaM in the assay buffer, 25°C) (min^-1 per μg of protein) [2]: 10.8
